Article PMC6201732 (Protein Science : A Publication of the Protein Society, 2018)

B1: Chlamydia trachomatis Serovar E native major outer membrane protein (nMOMP), from adherent HeLa 229 cells (natural protein)
chain: LPVGNPAEPSLMIDGILWEGFGGDPCDPCTTWCDAISMRMGYYGDFVFDRVLKTDVNKEFQMGDKPTSTTGNATAPTTLTARENPAYGRHMQDAEMFTNAACMALNIWDRFDVFCTLGASSGYLKGNSASFNLVGLFGDNENQSTVKTNSVPNMSLDQSVVELYTDTAFSWSVGARAALWECGCATLGASFQYAQSKPKVEELNVLCNAAEFTINKPKGYVGQEFPLALIAGTDAATGTKDASIDYHEWQASLALSYRLNMFTPYIGVKWSRASFDADTIRIAQPKSATAIFDTTTLNPTIAGAGDVKASAEGQLGDTMQIVSLQLNKMKSRKSCGIAVGTTIVDADKYAVTVETRLIDERAAHVNAQFRF
B2: Chlamydia trachomatis Serovar E native major outer membrane protein (nMOMP), from CHO suspension cells (natural protein)
chain: B1 chain
B3: Chlamydia trachomatis Serovar E native major outer membrane protein (nMOMP), from HeLa suspension cells (natural protein)
chain: B1 chain
B4: Chlamydia trachomatis Serovar D native major outer membrane protein (nMOMP), from adherent HeLa 229 cells (natural protein)
chain: LPVGNPAEPSLMIDGILWEGFGGDPCDPCATWCDAISMRVGYYGDFVFDRVLKTDVNKEFQMGAKPTTDTGNSAAPSTLTARENPAYGRHMQDAEMFTNAACMALNIWDRFDVFCTLGATSGYLKGNSASFNLVGLFGDNENQKTVKAESVPNMSFDQSVVELYTDTTFAWSVGARAALWECGCATLGASFQYAQSKPKVEELNVLCNAAEFTINKPKGYVGKEFPLDLTAGTDAATGTKDASIDYHEWQASLALSYRLNMFTPYIGVKWSRASFDADTIRIAQPKSATAIFDTTTLNPTIAGAGDVKTGAEGQLGDTMQIVSLQLNKMKSRKSCGIAVGTTIVDADKYAVTVETRLIDERAAHVNAQFRF
B5: Chlamydia trachomatis Serovar F native major outer membrane protein (nMOMP), from adherent HeLa 229 cells (natural protein)
chain: LPVGNPAEPSLMIDGILWEGFGGDPCDPCTTWCDAISMRMGYYGDFVFDRVLKTDVNKEFEMGEALAGASGNTTSTLSKLVERTNPAYGKHMQDAEMFTNAACMTLNIWDRFDVFCTLGATSGYLKGNSASFNLVGLFGDGVNATKPAADSIPNVQLNQSVVELYTDTTFAWSVGARAALWECGCATLGASFQYAQSKPKIEELNVLCNAAEFTINKPKGYVGKEFPLDLTAGTDAATGTKDASIDYHEWQASLSLSYRLNMFTPYIGVKWSRASFDSDTIRIAQPRLVTPVVDITTLNPTIAGCGSVAGANTEGQISDTMQIVSLQLNKMKSRKSCGIAVGTTIVDADKYAVTVETRLIDERAAHVNAQFRF
B6: Chlamydia muridarum native major outer membrane protein (nMOMP), from adherent HeLa 229 cells (natural protein)
chain: LPVGNPAEPSLMIDGILWEGFGGDPCDPCTTWCDAISLRLGYYGDFVFDRVLKTDVNKQFEMGAAPTGDADLTTAPTPASRENPAYGKHMQDAEMFTNAAYMALNIWDRFDVFCTLGATSGYLKGNSAAFNLVGLFGRDETAVAADDIPNVSLSQAVVELYTDTAFAWSVGARAALWECGCATLGASFQYAQSKPKVEELNVLCNAAEFTINKPKGYVGQEFPLNIKAGTVSATDTKDASIDYHEWQASLALSYRLNMFTPYIGVKWSRASFDADTIRIAQPKLETSILKMTTWNPTISGSGIDVDTKITDTLQIVSLQLNKMKSRKSCGLAIGTTIVDADKYAVTVETRLIDERAAHVNAQFRF

Target: the molecule itself
Assay: SEC-MALS

Row | Protein | stoichiometry N
1 | B1 | 2.52
2 | B2 | 2.27
3 | B3 | 2.3
4 | B4 | 2.8
5 | B5 | 2.85
6 | B6 | 2.59
